Experimental data as given in patent publication US20230295324A1.

What was measured:
[1] = target: human OX40 on cells (CHO-K1/hu OX40) (human) (UniProt P43489); assay: cell-based or functional assay
[2] = target: human OX40 on cells (CHO-K1/hu OX40) (human) (UniProt P43489); assay: FACS, CHO-K1/hu OX40 cells
[3] = target: human OX40 on cells (CHO-K1/hu OX40) (human) (UniProt P43489); assay: FACS, blocking of biotin-human OX40L on CHO-K1/hu OX40 cells

human OX40 on cells (CHO-K1/hu OX40) (human), sequence (P43489 29-277): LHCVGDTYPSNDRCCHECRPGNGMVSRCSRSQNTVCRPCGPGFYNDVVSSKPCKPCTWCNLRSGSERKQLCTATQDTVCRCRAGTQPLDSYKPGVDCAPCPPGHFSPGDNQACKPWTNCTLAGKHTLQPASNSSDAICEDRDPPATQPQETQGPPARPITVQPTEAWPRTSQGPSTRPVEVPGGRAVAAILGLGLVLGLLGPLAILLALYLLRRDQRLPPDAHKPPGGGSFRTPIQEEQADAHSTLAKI

EC50, HEK293/OX40/NF-kb luciferase reporter [1]: 136 nM
Maximum fluorescence signal value, HEK293/OX40/NF-kb luciferase reporter [1]: 140000 luminescence
Maximum MFI [2]: 501 MFI
Maximum inhibition rate (%) [3]: 0%
B1: PR002075 (antibody, human IgG1, V domains shown)
VH: EVQLVETGGGLIQPGGSLRLSCAASGFTFSSYAMSWVRQAPGKGLEWVSAISGSGGNTYYADSVRGRFTISRDNSKNTLYLQMNSLRAEDTAVYYCANGITGTTDVDYWGQGTRVTVSS
